From US12643935B2, “PD-L1 binding peptides” (UNIVERSITY OF SOUTHERN CALIFORNIA, priority 2020, dated 2026) come the findings set out here.

“Also recorded” adds a separate entry of the source.

Experiment [1] deals with T1, hPD-L1 (Homo sapiens, UniProt Q9NZQ7).
T1 construct: designed from A18 to T239 with a methionine added to the N-terminus; hexahistidine tag (C); made in house
As to the kind of experiment: Radioactive competition assay: [35S]-SPAM binding to immobilized hPD-L1 with competitor. As to conditions: 5 μM competitor. As for the experimental part: For radioactive competition assays, hPD-L1-immobilized streptavidin agarose beads were preincubated with the desired competitor for one hour at 4° C. followed by addition of the radiolabeled peptide for 1 h. The ratio of the counts remaining on the beads to the total counts added to the binding reaction was calculated to determine the percent bound.

In experiment [2] the target is T1, hPD-L1. As to the kind of experiment: Surface plasmon resonance of mPD-1 on immobilized hPD-L1. As to conditions: SPR, 25° C., one-site saturation binding model; read-out: dissociation constant (KD) hPD-L1/mPD-1. As for the experimental part: In order to confirm that the expressed hPD-L1 was correctly folded, binding to mPD-1 was measured by SPR. The dissociation constant (KD) between recombinant hPD-L1 and PD-1 was determined to be 3.2±0.3 μM using a one-site saturation binding model (FIG. 7).
SPR analysis was performed on a Biacore T-100 at the USC Nanobiophysics core. E. coli expressed biotinylated hPD-L1 was immobilized onto a sensor chip SA (GE Healthcare Life Sciences) and different concentrations (from 1.5×10^−7 to 2.9×10^−5 M) of mPD-1 was flowed over the chip at a rate of 50 μL/min for 60 seconds in a buffer consisting of 50 mM HEPES-KOH pH 7.5, 150 mM NaCl, 0.05% (v/v) Tween-20 and 1 mg/mL BSA at 25° C. The response values were fit to a one-site saturation binding model in GraphPad Prism to obtain an equilibrium binding constant.

B1: mPD-1: murine variant of PD-1, recombinant extracellular domain with HA tag and His tag (protein)
chain: MALEVPNGPWRSLTFYPAWLTVSEGANATFTCSLSNWSEDLMLNWNRLSPSNQTEKQAAFSNGLSQPVQDARFQIIQLPNRHDFHMNILDTRRNDSGIYLCGAISLHPKAKIEESPGAELVVTERILETSTRYPSGGYPYDVPDYALEHHHHHH
modifications: HA tag and His tag
notes: murine variant of PD-1, recombinant extracellular domain with HA tag and His tag
Consider B1, for which the “effect on [35S]-SPAM binding to immobilized hPD-L1” value with hPD-L1 [1] is “significantly inhibited; also recorded: disrupted”. Moreover, the Kd in the experiment with hPD-L1 [2] was about 3 µM.
